Literature values in publication PMC7150914.

Tests used:
[1] = biological target: PSP94 (β-microseminoprotein) (Homo sapiens) (UniProt P08118)
[2] = biological target: α-1B glycoprotein (Homo sapiens) (UniProt P04217)
[3] = biological target: CNGA2 (Rattus norvegicus) (UniProt Q00195)
[4] = biological target: CNGA1 (Bos taurus) (UniProt Q00194)
Sequence of UniProt Q00194 (Q00194 whole entry): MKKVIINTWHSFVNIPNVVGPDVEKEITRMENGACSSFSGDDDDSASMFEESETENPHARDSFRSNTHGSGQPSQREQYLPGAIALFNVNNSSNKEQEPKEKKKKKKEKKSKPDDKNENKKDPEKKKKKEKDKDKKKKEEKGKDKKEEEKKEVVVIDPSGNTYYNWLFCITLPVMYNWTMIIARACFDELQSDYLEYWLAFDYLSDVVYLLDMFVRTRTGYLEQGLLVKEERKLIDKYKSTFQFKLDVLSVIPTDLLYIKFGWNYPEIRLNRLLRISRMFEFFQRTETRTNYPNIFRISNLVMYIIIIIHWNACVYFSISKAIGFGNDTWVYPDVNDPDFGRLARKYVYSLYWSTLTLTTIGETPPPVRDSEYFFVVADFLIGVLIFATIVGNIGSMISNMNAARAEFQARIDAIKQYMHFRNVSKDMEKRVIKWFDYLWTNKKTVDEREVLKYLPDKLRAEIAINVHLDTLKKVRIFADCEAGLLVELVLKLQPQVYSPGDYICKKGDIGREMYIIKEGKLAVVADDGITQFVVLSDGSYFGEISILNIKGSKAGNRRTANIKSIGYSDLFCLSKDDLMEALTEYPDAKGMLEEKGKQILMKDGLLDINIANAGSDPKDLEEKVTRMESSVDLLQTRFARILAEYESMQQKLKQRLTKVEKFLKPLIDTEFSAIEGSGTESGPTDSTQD

Sequence of UniProt Q00195 (Q00195 whole entry): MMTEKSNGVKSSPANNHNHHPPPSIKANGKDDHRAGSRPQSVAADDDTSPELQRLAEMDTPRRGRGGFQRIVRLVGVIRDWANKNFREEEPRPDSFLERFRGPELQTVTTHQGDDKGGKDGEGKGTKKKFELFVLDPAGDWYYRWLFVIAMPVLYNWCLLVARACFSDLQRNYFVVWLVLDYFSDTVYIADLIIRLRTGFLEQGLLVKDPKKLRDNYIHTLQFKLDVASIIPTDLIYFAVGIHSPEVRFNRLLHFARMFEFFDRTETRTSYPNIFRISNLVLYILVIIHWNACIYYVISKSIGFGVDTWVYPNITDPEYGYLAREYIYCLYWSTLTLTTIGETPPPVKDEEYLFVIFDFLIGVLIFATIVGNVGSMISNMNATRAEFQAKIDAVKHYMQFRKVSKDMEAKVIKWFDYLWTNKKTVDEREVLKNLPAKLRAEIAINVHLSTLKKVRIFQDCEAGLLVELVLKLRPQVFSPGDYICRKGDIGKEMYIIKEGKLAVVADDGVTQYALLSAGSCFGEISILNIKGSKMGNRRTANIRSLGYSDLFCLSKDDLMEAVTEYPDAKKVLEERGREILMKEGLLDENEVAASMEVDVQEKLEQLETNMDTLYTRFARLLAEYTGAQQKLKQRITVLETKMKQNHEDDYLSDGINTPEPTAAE
Sequence of UniProt P08118 (P08118 21-114): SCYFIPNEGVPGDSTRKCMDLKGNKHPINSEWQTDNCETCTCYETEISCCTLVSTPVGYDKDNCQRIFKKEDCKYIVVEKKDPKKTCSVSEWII
Sequence of UniProt P04217 (P04217 22-495): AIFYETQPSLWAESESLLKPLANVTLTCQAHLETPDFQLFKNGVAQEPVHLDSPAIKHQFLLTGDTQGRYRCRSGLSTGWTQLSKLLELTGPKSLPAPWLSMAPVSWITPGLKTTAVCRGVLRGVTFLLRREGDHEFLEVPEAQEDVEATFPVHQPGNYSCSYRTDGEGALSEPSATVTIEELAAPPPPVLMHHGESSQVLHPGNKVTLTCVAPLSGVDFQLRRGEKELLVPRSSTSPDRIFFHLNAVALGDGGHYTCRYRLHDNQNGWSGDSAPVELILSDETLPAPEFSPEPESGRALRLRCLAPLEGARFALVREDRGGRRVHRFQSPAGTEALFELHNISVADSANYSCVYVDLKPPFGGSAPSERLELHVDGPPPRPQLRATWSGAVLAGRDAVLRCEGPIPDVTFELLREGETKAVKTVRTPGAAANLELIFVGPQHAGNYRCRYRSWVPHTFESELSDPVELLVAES

Substance: CRISP-3 (from UniProt P54108)
- Kd [1]: 0.0628 nM
- Kd [2]: 2.8 nM

Substance: Pseudechetoxin (PsTx) (from UniProt Q8AVA4)
- Ki [3]: 15 nM
- Ki [4]: 70 nM
